Source: article doi:10.1101/2025.07.09.663820 (bioRxiv, 2025)
Blank lines part the entries; values can stand above or below the molecule they belong to.

How the values were obtained:
[1] = target: CHIP13 extracellular domain (residues 33-253) (Lotus japonicus); test: SEC
[2] = target: CHIP13 extracellular domain (residues 33-253) (Lotus japonicus, UniProt D3KU00, N-glycans (one on N143))

stoichiometry N [1]: 2
Molecule: CHIP13 extracellular domain (residues 33-253) (domain or fragment)

Kd [2]: 8.1 nM
B1: Nb-aCHIP13 (VHH)
VHH: QLQLVESGGGLVQAGGSLRLSCATSGTTFRLNTMGWYRQAPGKQRELVATISRDFKTNYADSVKGRFTISRDNAKHTVDLQMNSLTPEDTAVYYCLVRDQREWYGPEYDNWGRGTQVTVSS
